The values below come from the supplement of paper PMC5998384.

Data set [1] relates to HeLa Kyoto. The experiment in a line: melting temperature (median over replicates), in situ; higher = more thermally stable.
For data set [2], the system named is HeLa Kyoto. Kind of data set: solubility in G1/S (NP-40 vs SDS abundance) (log2 ratio); higher = more soluble. The settings on record: cell cycle stage: G1/S.
The test system of data set [3] is HeLa Kyoto. Kind of data set: solubility change mitosis vs G1/S (difference of NP-40 vs SDS log2 ratios) (log2 ratio difference); higher = more soluble in mitosis.
The subject of data set [4] is HeLa Kyoto. Kind of data set: thermal stability score vs G1/S (z-score of summed log2 fold changes over temperatures); higher = more thermally stable than in G1/S.
Where [5] appears, read: cell cycle stage: early G1 (4.5 h after nocodazole release).
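For melting temperature (median over replicates), in situ in this document: HeLa Kyoto cells synchronized by double thymidine or nocodazole block, proteins quantified by TMT10plex mass spectrometry, three independent biological replicates.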
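For solubility change mitosis vs G1/S (difference of NP-40 vs SDS log2 ratios) in this document: synchronized HeLa Kyoto cells (double thymidine block for G1/S, nocodazole release for mitosis), protein amounts in NP-40 versus SDS lysates quantified by mass spectrometry, three biological replicates.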
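For solubility in G1/S (NP-40 vs SDS abundance) in this document: HeLa Kyoto cells arrested at G1/S by double thymidine block, proteins quantified by TMT10plex mass spectrometry in mild NP-40 versus SDS extracts, three biological replicates.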
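For thermal stability score vs G1/S (z-score of summed log2 fold changes over temperatures) in this document: synchronized HeLa Kyoto cells, proteins quantified by TMT10plex mass spectrometry, three biological replicates, mitosis taken 0.5 h after nocodazole release, G1/S directly after double thymidine block.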

Consider “MSTGDSFETRFEKMDNLLRDPKSEVNSDCLLDGLDALVYDLDFPALRKNKNIDNFLSRYKDTINKIRDLRMKAEDYEVVKVIGRGAFGEVQLVRHKSTRKVYAMKLLSKFEMIKRSDSAFFWEERDIMAFANSPWVVQLFYAFQDDRYLYMVMEYMPGGDLVNLMSNYDVPEKWARFYTAEVVLALDAIHSMGFIHRDVKPDNMLLDKSGHLKLADFGTCMKMNKEGMVRCDTAVGTPDYISPEVLKSQGGDGYYGRECDWWSVGVFLYEMLVGDTPFYADSLVGTYSKIMNHKNSLTFPDDNDISKEAKNLICAFLTDREVRLGRNGVEEIKRHLFFKNDQWAWETLRDTVAPVVPDLSSDIDTSNFDDLEEDKGEEETFPIPKAFVGNQLPFVGFTYYSNRRYLSSANPNDNRTSSNADKSLQESLQKTIYKLEEQLHNEMQLKDEMEQKCRTSNIKLDKIMKELDEEGNQRRNLESTVSQIEKEKMLLQHRINEYQRKAEQENEKRRNVENEVSTLKDQLEDLKKVSQNSQLANEKLSQLQKQLEEANDLLRTESDTAVRLRKSHTEMSKSISQLESLNRELQERNRILENSKSQTDKDYYQLQAILEAERRDRGHDSEMIGDLQARITSLQEEVKHLKHNLEKVEGERKEAQDMLNHSEKEKNNLEIDLNYKLKSLQQRLEQEVNEHKVTKARLTDKHQSIEEAKSVAMCEMEKKLKEEREAREKAENRVVQIEKQCSMLDVDLKQSQQKLEHLTGNKERMEDEVKNLTLQLEQESNKRLLLQNELKTQAFEADNLKGLEKQMKQEINTLLEAKRLLEFELAQLTKQYRGNEGQMRELQDQLEAEQYFSTLYKTQVKELKEEIEEKNRENLKKIQELQNEKETLATQLDLAETKAESEQLARGLLEEQYFELTQESKKAASRNRQEITDKDHTVSRLEEANSMLTKDIEILRRENEELTEKMKKAEEEYKLEKEEEISNLKAAFEKNINTERTLKTQAVNKLAEIMNRKDFKIDRKKANTQDLRKKEKENRKLQLELNQEREKFNQMVVKHQKELNDMQAQLVEECAHRNELQMQLASKESDIEQLRAKLLDLSDSTSVASFPSADETDGNLPESRIEGWLSVPNRGNIKRYGWKKQYVVVSSKKILFYNDEQDKEQSNPSMVLDIDKLFHVRPVTQGDVYRAETEEIPKIFQILYANEGECRKDVEMEPVQQAEKTNFQNHKGHEFIPTLYHFPANCDACAKPLWHVFKPPPALECRRCHVKCHRDHLDKKEDLICPCKVSYDVTSARDMLLLACSQDEQKKWVTHLVKKIPKNPPSGFVRASPRTLSTRSTANQSFRKVVKNTSGKTS [ROCK1]”, for which the melting temperature turned out to be 50.4 °C with HeLa Kyoto [1] (cell cycle stage: G1/S) and 50.2 °C with HeLa Kyoto [1] (cell cycle stage: mitosis). Also, in the data set on HeLa Kyoto [2], the “solubility in G1/S (log2)” value is -0.0278. Also, the “solubility change mitosis (log2)” value with HeLa Kyoto [3] is -0.138. Moreover, the thermal stability score is -0.147 with HeLa Kyoto [4] (setting [5]) and -0.118 with HeLa Kyoto [4] (cell cycle stage: mitosis).
As to “MSTKNFRVSDGDWICPDKKCGNVNFARRTSCNRCGREKTTEAKMMKAGGTEIGKTLAEKSRGLFSANDWQCKTCSNVNWARRSECNMCNTPKYAKLEERTGYGGGFNERENVEYIEREESDGEYDEFGRKKKKYRGKAVGPASILKEVEDKESEGEEEDEDEDLSKYKLDEDEDEDDADLSKYNLDASEEEDSNKKKSNRRSRSKSRSSHSRSSSRSSSPSSSRSRSRSRSRSSSSSQSRSRSSSRERSRSRGSKSRSSSRSHRGSSSPRKRSYSSSSSSPERNRKRSRSRSSSSGDRKKRRTRSRSPERRHRSSSGSSHSGSRSSSKKK [ZRANB2]”, in the data set with HeLa Kyoto [1] (cell cycle stage: G1/S), the melting temperature turned out to be 58 °C. Moreover, the “solubility in G1/S (log2)” value with HeLa Kyoto [2] was -0.0186. Also, in the data set with HeLa Kyoto [3], the “solubility change mitosis (log2)” value is -0.011. For the same sequence, the thermal stability score with HeLa Kyoto [4] (setting [5]) stood at 0.299; in the data set with HeLa Kyoto [4] (cell cycle stage: mitosis), 0.397.
For “MSTPAVPQDLQLPPSQRAQSAFKEQRRQKLKEHLLRRKTLFAYKQENEMLSSSRDQRVVTSEDQVQEGTKVLKLKTKMADKENMKRPAESKNNTVVGKHCIPLKPSNELTNSTVVIDTHKPKDSNQTPHLLLTEDDPQSQHMTLSQAFHLKNNSKKKQMTTEKQKQDANMPKKPVLGSYRGQIVQSKINSFRKPLQVKDESSAATKKLSATIPKATKPQPVNTSSVTVKSNRSSNMTATTKFVSTTSQNTQLVRPPIRSHHSNTRDTVKQGISRTSANVTIRKGPHEKELLQSKTALSSVKTSSSQGIIRNKTLSRSIASEVIARPASLSNDKLMEKSEPVDQRRHTAGKAIVDSRSAQPKETSEERKARLSEWKAGKGRVLKRPPNSVVTQHEPAGQNEKPVGSFWTTMAEEDEQRLFTEKVNNTFSECLNLINEGCPKEDILVTLNDLIKNIPDAKKLVKYWICLALIEPITSPIENIIAIYEKAILAGAQPIEEMRHTIVDILTMKSQEKANLGENMEKSCASKEEVKEVSIEDTGVDVDPEKLEMESKLHRNLLFQDCEKEQDNKTKDPTHDVKTPNTETRTSCLIKYNVSTTPYLQSVKKKVQFDGTNSAFKELKFLTPVRRSRRLQEKTSKLPDMLKDHYPCVSSLEQLTELGRETDAFVCRPNAALCRVYYEADTT [CKAP2]”, the melting temperature in the data set with HeLa Kyoto [1] (cell cycle stage: G1/S) was 51 °C; in the data set with HeLa Kyoto [1] (cell cycle stage: mitosis), 49.3 °C. Moreover, in the data set with HeLa Kyoto [2], the “solubility in G1/S (log2)” value was -0.733. Also, the “solubility change mitosis (log2)” value in the data set with HeLa Kyoto [3] was 0.657. Moreover, the thermal stability score in the data set on HeLa Kyoto [4] (setting [5]) is -1.31; in the data set with HeLa Kyoto [4] (cell cycle stage: mitosis) it was -0.259.
For “MSVACVLKRKAVLWQDSFSPHLKHHPQEPANPNMPVVLTSGTGSQAQPQPAANQALAAGTHSSPVPGSIGVAGRSQDDAMVDYFFQRQHGEQLGGGGSGGGGYNNSKHRWPTGDNIHAEHQVRSMDELNHDFQALALEGRAMGEQLLPGKKFWETDESSKDGPKGIFLGDQWRDSAWGTSDHSVSQPIMVQRRPGQSFHVNSEVNSVLSPRSESGGLGVSMVEYVLSSSPGDSCLRKGGFGPRDADSDENDKGEKKNKGTFDGDKLGDLKEEGDVMDKTNGLPVQNGIDADVKDFSRTPGNCQNSANEVDLLGPNQNGSEGLAQLTSTNGAKPVEDFSNMESQSVPLDPMEHVGMEPLQFDYSGTQVPVDSAAATVGLFDYNSQQQLFQRPNALAVQQLTAAQQQQYALAAAHQPHIGLAPAAFVPNPYIISAAPPGTDPYTAGLAAAATLGPAVVPHQYYGVTPWGVYPASLFQQQAAAAAAATNSANQQTTPQAQQGQQQVLRGGASQRPLTPNQNQQGQQTDPLVAAAAVNSALAFGQGLAAGMPGYPVLAPAAYYDQTGALVVNAGARNGLGAPVRLVAPAPVIISSSAAQAAVAAAAASANGAAGGLAGTTNGPFRPLGTQQPQPQPQQQPNNNLASSSFYGNNSLNSNSQSSSLFSQGSAQPANTSLGFGSSSSLGATLGSALGGFGTAVANSNTGSGSRRDSLTGSSDLYKRTSSSLTPIGHSFYNGLSFSSSPGPVGMPLPSQGPGHSQTPPPSLSSHGSSSSLNLGGLTNGSGRYISAAPGAEAKYRSASSASSLFSPSSTLFSSSRLRYGMSDVMPSGRSRLLEDFRNNRYPNLQLREIAGHIMEFSQDQHGSRFIQLKLERATPAERQLVFNEILQAAYQLMVDVFGNYVIQKFFEFGSLEQKLALAERIRGHVLSLALQMYGCRVIQKALEFIPSDQQNEMVRELDGHVLKCVKDQNGNHVVQKCIECVQPQSLQFIIDAFKGQVFALSTHPYGCRVIQRILEHCLPDQTLPILEELHQHTEQLVQDQYGNYVIQHVLEHGRPEDKSKIVAEIRGNVLVLSQHKFASNVVEKCVTHASRTERAVLIDEVCTMNDGPHSALYTMMKDQYANYVVQKMIDVAEPGQRKIVMHKIRPHIATLRKYTYGKHILAKLEKYYMKNGVDLGPICGPPNGII [PUM1]”, the melting temperature in the data set on HeLa Kyoto [1] (cell cycle stage: G1/S) is 51.5 °C; in the data set on HeLa Kyoto [1] (cell cycle stage: mitosis) it was 51 °C. Moreover, the “solubility in G1/S (log2)” value in the data set with HeLa Kyoto [2] is 0.186. Also, the “solubility change mitosis (log2)” value with HeLa Kyoto [3] was -0.102. For the same sequence, the thermal stability score in the data set with HeLa Kyoto [4] (setting [5]) is -1.3; in the data set with HeLa Kyoto [4] (cell cycle stage: mitosis) it was -1.48.
